Data taken from patent publication US9370555B2, “Surfactant protein D for the treatment of disorders associated with lung injury” (priority 1998, dated 2016).
Entries after “also recorded” stand apart in the source; their conditions may differ.

How the values were obtained:
premature lambs [1] = experiment: Lung function and morphology in ventilated premature lambs; type: in vivo, sheep
[2] = Surface tension by captive bubble surfactometer; type: physicochemical; conditions: 15 μg/μL SURVANTA with 2% rhSP-D or buffer
Method: (§1) Surface tension was measured by captive bubble surfactometer (Schoel M, et al. The captive bubble method for the evaluation of pulmonary surfactant: surface tension, area, and volume calculations. Biochim Biophys Acta 1994; 1200:281-290) on 3 μL of samples containing 15 μg/μL […]® and 2% rhSP-D or buffer in the presence or absence of surfactant inhibitor (21 μg/μL plasma protein) (Ikegami M, et al. Characteristics of surfactant from SP-A deficient mice. Am J Physiol Lung Cell Mol Physiol 1998; 275:L247-L25). This amount of plasma protein relative to […]® was 30% lower than the concentration that is known to inhibit the activity of […]® in the ventilated premature newborn lamb lung in vivo (Wada K, et al. Tidal volume effects on surfactant treatment responses with the initiation of ventilation in preterm lambs. J Appl Physiol 1997; 83:1054-1061). The influence of rhSP-D on the ultrastructure of […]® was studied as previously described (Schmiedl A, et al. Influence of plasma and inflammatory proteins on the ultrastructure of exogenous surfactant. J Electron Microsc (Tokyo) 2004; 53:407-416).

premature lambs [3] = experiment: Pulmonary inflammation in ventilated premature lambs (BALF cells, NE activity, cytokine mRNA and protein, flow cytometry); type: in vivo, sheep
Method: A five hour study period was chosen to detect changes in proinflammatory cytokine mRNAs induced by initial ventilation (Naik A S, et al. Effects of ventilation with different positive end-expiratory pressures on cytokine expression in the preterm lamb lung. Am J Respir Crit Care Med 2001; 164:494-498). After five hours, lambs were ventilated with FiO2=1 for five minutes, then given 100 mg pentobarbital intravascularly, after which the endotracheal tube was clamped to permit oxygen absorption atelectasis (Ikegami M, et al. Intratracheal recombinant surfactant protein D prevents endotoxin shock in the newborn preterm lamb. Am J Respir Crit Care Med 2006; 173:1342-1347; Ikegami M, Jobe A. Postnatal lung inflammation increased by ventilation of preterm lambs exposed antenatally to E. coli endotoxin. Pediatr Res 2002; 52:356-362). After the thorax was opened, the deflation limb of pressure-volume curve was measured (Kramer B W, et al. Surfactant protein A recruits neutrophils into the lungs of ventilated preterm lambs. Am J Respir Crit Care Med 2001; 163:158-165; Ikegami M, et al. Intratracheal recombinant surfactant protein D prevents endotoxin shock in the newborn preterm lamb. Am J Respir Crit Care Med 2006; 173:1342-1347). Lung tissue of the right lower lobe was frozen in liquid nitrogen for RNA isolation and measurement of neutrophil elastase (NE) activity (Lowry O H, et al. Protein measurement with the Folin phenol reagent. J Biol Chem 1951; 193:265-275; Watterberg K L, et al. Secretory leukocyte protease inhibitor and lung inflammation in developing bronchopulmonary dysplasia. J Pediatr 1994; 125:264-269). NE is a potent serine proteinase, responsible for tissue destruction in the adult lung with emphysema (Shapiro S D, et al. Neutrophil elastase contributes to cigarette smoke-induced emphysema in mice. Am J Pathol 2003; 163:2329-2335). In the preterm newborn lung, increased NE activity affects lung remodeling and increases alveolar epithelial apoptosis and the development of BPD (Watterberg K L, et al. Secretory leukocyte protease inhibitor and lung inflammation in developing bronchopulmonary dysplasia. J Pediatr 1994; 125:264-269; Yasumatsu R, et al. SERPINB1 upregulation is associated with in vivo complex formation with neutrophil elastase and cathepsin G in a baboon model of bronchopulmonary dysplasia. Am J Physiol Lung Cell Mol Physiol 2006; 291:L619-L627). NE activity was assessed by a spectrophotometric assay using a chromogenic substrate specific for NE, N-methoxy-succinyl-Ala-Ala-Pro-Val pNA (Yasumatsu R, et al. SERPINB1 upregulation is associated with in vivo complex formation with neutrophil elastase and cathepsin G in a baboon model of bronchopulmonary dysplasia. Am J Physiol Lung Cell Mol Physiol 2006; 291:L619-L627).
; Lung tissue of the right middle lobe was homogenized in 0.9% NaCl and supernatant after centrifugation at 1,000×g for 15 minutes and frozen for ELISA of proinflammatory cytokine proteins (Kramer B W, et al. Surfactant protein A recruits neutrophils into the lungs of ventilated preterm lambs. Am J Respir Crit Care Med 2001; 163:158-165; Ikegami M, et al. Intratracheal recombinant surfactant protein D prevents endotoxin shock in the newborn preterm lamb. Am J Respir Crit Care Med 2006; 173:1342-1347). BALF was recovered from the left lung (Ikegami M, et al. Whitsett J A. Intratracheal recombinant surfactant protein D prevents endotoxin shock in the newborn preterm lamb. Am J Respir Crit Care Med 2006; 173:1342-1347) for further analyses. Total proteins were analyzed (Lowry O H, et al. Protein measurement with the Folin phenol reagent. J Biol Chem 1951; 193:265-275) in the supernatant of BALF after 10 minutes of centrifugation at 284×g. The right upper lobe was inflation-fixed at 30 cm H2O for morphology (Ikegami M, et al. Surfactant protein-D regulates the postnatal maturation of pulmonary surfactant lipid pool sizes. J Appl Physiol 2009; 106:1545-1552). […]

[4] = Ultrastructure of surfactant mixtures (electron micrographs); type: physicochemical; conditions: SURVANTA mixed with buffer or rhSP-D
Method: as §1

[5] = CD45-positive cells from BALF, flow cytometry
[6] = premature lambs, five hours of ventilation, +rhSP-D vs control
[7] = premature lambs, mean levels decreased by rhSP-D

B1: rhSP-D: recombinant human surfactant protein D, given mixed with SURVANTA to premature lambs (protein, UniProt P35247 21-375, looked up)
Pulmonary …: AEMKTYSHRTMPSACTLVMCSSVESGLPGRDGRDGREGPRGEKGDPGLPGAAGQAGMPGQAGPVGPKGDNGSVGEPGPKGDTGPSGPPGPPGVPGPAGREGPLGKQGNIGPQGKPGPKGEAGPKGEVGAPGMQGSAGARGLAGPKGERGVPGERGVPGNTGAAGSAGAMGPQGSPGARGPPGLKGDKGIPGDKGAKGESGLPDVASLRQQVEALQGQVQHLQAAFSQYKKVELFPNGQSVGEKIFKTAGFVKPFTEAQLLCTQAGGQLASPRSAAENAALQQLVVAKNEAAFLSMTDSKTEGKFTYPTGESLVYSNWAPGEPNDDGGSEDCVEIFTNGKWNDRACGEKRLVVCEF
mean PIP required to regulate VT at 8 to 9 ml/kg (premature lambs [1]; premature lambs after surfactant at 20 minutes of age, same for controls): 27 cm H2O | Po2/Fio2 (premature lambs [1]; premature lambs, 7 mg rhSP-D mixed with SURVANTA 100 mg/kg vs SURVANTA+buffer control, P<0.01): higher | alveolar fluid (premature lambs [1]; premature lambs, +rhSP-D vs control): More fluid was noted in alveoli of the control lambs; also recorded: More alveolar fluid was observed in control lambs | modified ventilation index (MVI) (premature lambs [1]; premature lambs, +rhSP-D vs control, after 240 minutes, not statistically significant): tends to be better (lower) | deflation limb of pressure-volume curves (premature lambs [1]; premature lambs, +rhSP-D vs control, after five hours): not different | minimum surface tension ([2]; absence of plasma protein): low | minimum surface tension ([2]; presence of surfactant inhibitor (21 μg/μL plasma protein)): remaining low; also recorded: low minimum surface tension in the presence of plasma protein | expression of CD11b (premature lambs [3]; [5]): did not influence expression | expression of CD44 (premature lambs [3]; [5]): did not influence expression | proteins in BALF (premature lambs [3]; premature lambs, +rhSP-D group, control group 60±7): 57 ± 11 mg/kg | lung inflammation (premature lambs [3]; premature lambs, five hours of ventilation): decreased in all the lambs treated with rhSP-D | neutrophils in BALF (premature lambs [3]; [6]): significantly decreased; also recorded: suppressed | total inflammatory cell numbers in BALF (premature lambs [3]; [6]): significantly decreased; also recorded: suppressed | IL-1β protein in the lung (premature lambs [3]; premature lambs, ELISA): not significantly influenced | IL-8 protein in lung homogenates (premature lambs [3]; premature lambs, ELISA, +rhSP-D vs control): significantly decreased | IL-1β mRNA in the lung (premature lambs [3]; premature lambs, RT-PCR): not significantly influenced; also recorded: generally lower | IL-8 mRNA in the lung (premature lambs [3]; premature lambs, RT-PCR, +rhSP-D vs control): significantly decreased; also recorded: significantly suppressed | TNF-α mRNA expression (premature lambs [3]; premature lambs, data not shown): similarly present at low levels in both groups | KC mRNA in the lung (premature lambs [3]; [7]): not significantly different; also recorded: generally lower | MCP1 mRNA in the lung (premature lambs [3]; [7]): not significantly different; also recorded: generally lower | IL-6 mRNA expression in the lung (premature lambs [3]; premature lambs, mean, P=0.06, not statistically significant): generally lower | IL-6 protein in the lung (premature lambs [3]; premature lambs, mean, P=0.1, not statistically significant): lower | neutrophil elastase (NE) activity in the lung (premature lambs [3]; premature lambs, rhSP-D added to SURVANTA vs control, P<0.05): decreased NE activity | ultrastructure of surfactant [4]: causing the formation of lipid aggregates and multilayers; also recorded: from simple lipid layers to the mixture of multiple lipid layers and lipid aggregates
